Data: a protein production outcome set (Wang et al. 2014)

Experiment: label from the status in PepcDB records
For “VLLAITTGLVASLVNAKAYKGAEIFTNDAYLYGRYEIRMRVANASGILSTFFTYKNGSEVGNTFWEEIDIEVFGKNNATQWQSNIILGSSRPTIHTEEIHTADTSLADAYHTYVVEWTPDYVAWFLDGVEVRRITGTSTVTSLTNAQSLRFNIWSSESVPWVGAWDDSVLPVYQFVNYIDYKAYNATTKTFEGGWRDDFNNFDSSRWGKANWSFDMNRVDFAPENALVKDGILVLALTKENATGFNGTPPADEPASSSSSVAASSTPASSIAASSIAASVAASSVAVATSSVAASKASGGGSGGGAINGMWLLMLGSFVLLGWVHNQRQSHQQHQ”, the protein production was “failed”.
With “VLTPRHIATLFTKLIPFKKNDKILDLCCGTGAFLIAGMNKLLSLKGIDAQNVKSNQLLGFEINPTMYICAISNMLFRGDGKSKIYNMDSINDDKVNKIISESAPTIGFINPPYSGKENKEDPTPKEITFLKKC” the protein production was “failed”.
With “VMPLILLPAVDVVEGRAVRLVQGKAGSQTEYGSAVDAALGWQRDGAEWIHLVDLDAAFGRGSNHELLAEVVGKLDVQVELSGGIRDDESLAAALATGCARVNVGTAALENPQWCARVIGEHGDQVAVGLDVQIIDGEHRLRGRGWETDGGDLWDVLERLDSEGCSRFVVTDITKDGTLGGPNLDLLAGVADRTDAPVIASGGVSSLDDLRAIATLTHRGVEGAIVGKALYARRFTLPQALAAVRD” the protein production was “not failed”.
In the case of “VNATQRKLLMQLVIGAAWVDGDLDQPERQYLQTLLERQKLDHDPDLLVLLETPIGLPQLEAWLVTFLQGTSTPTRLAALATIANLLMADGVVNRSEHSLLDEIHSLMAQIPASRDEEEYRQAAPGLVQGLSGLVRRALNGAKHLFQ”, the protein production is reported as “not failed”.
In the case of “VPMNIKGLFEVAVKVKNLEKSSQFYTEILGFEAGLLDSARRWNFLWVSGRAGMVVLQEEKENWQQQHFSFRVEKSEIEPLKKALESKGVSVHGPVNLEWMQAVSLYFADPNGHALEFTAL”, the protein production is reported as “not failed”.
With “VRHTVKIDKDTLLQDYGFHISESLPLTVVAVTAGGSAHGKLFPGDQILQMNNEPAEDLSWERAVDILREAEDSLSITVVRCTS” the protein production was “not failed”.
With “VTATQLAAKATTLYYLHKQAMTDEVSLLLEQALQLEPYNEAALSLIANDHFISFRFQEAIDTWVLLLDSNDPNLDRVTIIESINKAKKLM” the protein production was “not failed”.
For “VTPEQLQHHRFVLESVNGKPVTSDKNPPEISFGEKMMISGSMCNRFSGEGKLSNGELTAKGLAMTRMMCANPQLNELDNTISEMLKEGAQVDLTANQLTLATAKQTLTYKLADLMN”, the protein production was “not failed”.
With “VTPQGLRIVLQDDYKQHMFSRGGAELTPFFEDLLLALAPLFEQVTNPLIISGHTDAIPFKKRFGRQSNWALSASRADVARKTLVEGGMPDDRVMQVTGMSDRALLNPDEPDSSENRRIELFILTTP” the protein production was “failed”.
In the case of “VTTVGFDVAARLGTLLTAMVTPFSGDGSLDTATAARLANHLVDQGCDGLVVSGTTGESPTTTDGEKIELLRAVLEAVGDRARVIAGAGTYDTAHSIRLAKACAAEGAHGLLVVTPYYSKPPQRGLQAHFTAVADATELPMLLYDIPGRSAVPIEPDTIRALASHPNIVGVKDAKADLHSGAQIMADTGLAYYSGDDALNLPWLAMGATGFISVIAHLAAGQLRELLSAFGSGDIATARKINIAVAPLCNAMSRLGGVTLSKAGLRLQGIDVGDPRLPQVAATPEQIDALAADMRAASVLR”, the protein production is reported as “not failed”.
For “VWICTKCVRCKSCGSTTPGKGWDAQWSHDFSLCHDCAKLFAKGNFCPLCDKCYDDDDYESKMMQCGKCDRWVHSKCENLSDEMYEILSNLPESVAYTCVNCTERHPAEWRLALEKELQISLKQVLTALLNSRTTSHLLRYRQAAKPPDLNPETEESIPSRSSPEGPDPPVLTEVSKQDDQQPLDLEGVKRKMDQGNYTSVLEFSDDIVKIIQAAINSDGGQPEIKKANSMVKSFFIRQMERVFPWFSVKKSRFWEPNKVSSNSGMLPNAVLPPSLDHNYAQWQEREENSHTEQ”, the protein production was “failed”.
With “VWRQYASRALQELGAGKRAIHDVADLTRGSLRIAVTPTFTSYFIGPLMADFYARYPSITLQLQEMSQEKIEDMLCRDELDVGIAFAPVHSPELEAIPLLTESLALVVAQHHPLAVHEQVALSRLHDEKLVLLSAEFATREQIDHYCEKAGLHPQVVIEANSISAVLELIRRTSLSTLLPAAIATQHDGLKAISLAPPLLERTAVLLRRKNSWQTAAAKAFLHMALDKCAVVGGNESR” the protein production was “not failed”.
For “VYLDFENHIKEIQNEIELALIRGDEDAKEILEKRLDKEVKSIYSNLTDFQKLQLARHPDRPYAMDYIDLILKDKYEVFGDRHYNDDKAIVCFVGKIDNVPVVVIGEEKGRGTKNKLLRNFGMPNPCGYRKALKMAKFAEKFNL”, the protein production was “failed”.
For “WLDLAPSTQVDTETSINVLSDIEFTLNGIYSTMQSSDAYSGRLVYYGDVTGDDMQAVSSTKRTGNYYRFNFTKDNGPSSHWSYLYSIIQNCNLILMNVDKLSIDEDETEYKNDLKGQALAIRGMALFDLTRIFGYPYLKDNGASLGVPIVKELSTIDSKPARNTVAECYTEIISDLKNSTELLSGDFNKGKVNRWAAMTLLSRVYLYKGEYNEALTMAENAIKGAEKEGYALWTNEEYPTAWGNDASASNPGEILFEIVNLTTDSPGKESMGYLNSYNGYDDMCITCSFYQLLKKDPKDVRLKILSFDKKYYAYVNKYQPQQGENITDANIPLIRLSEAYLNAAEAAVQTGDNAKAVKYLNSIVQRANPENSVEGKTLTLENVLDERRKELVAEGHRMYDVIRNGMTVKRIDVKDSDINKTKHNTAYMEYDWNFHKILLPIPKKEMDANPNMKQNPGYVD”, the protein production was “not failed”.
In the case of “WQPATERLQVTYLGKVSTTGMQFLSGCTEKPVIELWKKHTLAREDVFPANALLEIRPFQVWLHHLDHKGEATVHMDTFQVARIAYCTADHNVSPNIFAWVYREINDDLSYQMDCHAVECESKLEAKKLAHAMMEAFRKTFHSMKSDGRIH”, the protein production is reported as “failed”.
For “WRRLVEEAARRDPDDVRLLVHVASDVWNFVDEHCTLVADAYRHVERQLAWRRENRLRLMTTALLDGTTRIADLPDVATALDLPEQGRYAVVSVAVAHPAGHVGTQLLSVPPGMRALWHTGTDVEHGIVHLGEREPKDLVDRVTVPIGARVGISRAVDGLAAVGDARRLAETALRACPESGGTVLLDEHLPAALLVSAPALGTALVNRVLGPLLSLDPSDRDLLLDTVSAWLDNDGSAQRAASRLYCHRNTVLNRLRRFEQLTGRCLTRPADVVDTSLALTARRL”, the protein production was “failed”.
For “WRTIFNAEPECVMIVATDGTLLDINPAGVAAIEADSVGAVIGKRVYSLVVPECQQAFRQLNESVCQGKQGTLEFEIITCRGNRRWMATHAVPVRNEKDGNLVQLSI”, the protein production was “failed”.
With “WSLQPLADMSAAEFRDWQVLLENRTGVVLNEQRRTFLQASLTARMRELGIGDYHSYYRQVTDGPRGAVEWATLLDRLTVQETRFFRHPPSFELLERYLGERLRREGMPRPWALWSVGCSSGEEPYSLAMCAAQVLRGQEREDFFGVTGTDISLHALQRARQANYPARKLEQLEAGLVERYCERQADGSFSVKTILTERVCCARLNVLDLAKAPWSGMDVIFCQNLLIYFRRWRRREILNRLAERLAPGGLLVIGVGEVVDWSHPELEPVADERVL” the protein production was “failed”.
In the case of “WSYEHLHLTNRIKLLYAPTFRDNELGMAKLHLDIAEMKQALGNEYQLILKLHPSISNDLEKLDDDFVIYVDKETPIETLLPVVDILITDYSSIPFEFALLQKPMIFFTYDLTEYNNARGLSDGFLETIPGPHVFTTTELIEVIQNNTFDLEKVRLFAEKWNKYSDGFSSERFVSFLKEQLEK”, the protein production is reported as “failed”.
For “YANEEKGLEIAQERKARDEGWGDSIATMEMILKNAQGESSTRLMRLKSLEVEGDGDKGLTIFDQPRDVTGTAFLNHSHTIGADDQWLYLPALKRVKRISSRNKSGPFMGSEFAYEDLSSFEIEKYRFNHLKDEKFNGQDVFVLEQIPTDKNSGYTKQVVWLDKAHYRPLKVEFYDRKGALLKTLTFANYKQYLDKYWRAHTMAMTNHQTGKSTELNTSDLRFQTGLEENDFNKNVLKRVK”, the protein production was “failed”.
For “YETIIIHRHQRPDPDAIGSQVGLAELLRASFPEKNIYQVGGPVEGLEFLAEMDVITDDVYRGALVIVTDTANAPRISDARFSLGDQLIKIDHHPNDEPYGDLVWVNTNASSCSEIIVDFWQQHLAELTMTDNAARLLYAGIVGDTGRFLYPSTSAHTLAVAAQLRTFNFNAADLNRELDQMP”, the protein production was “not failed”.
With “YHDETAQDEEDRVLIHFNVRDIKIGPECHDVQPPEGRSRDGLLTVNLREGGRLHLCAETKDDALAWKTALLEANSTPVRVYSPYQDYYEVVPPNAHEATYVRSYYGPPYAGPGVTHVIVREDPCYSAGAPLAMGMLAGAATGAALGSLMWSPCWF” the protein production was “failed”.
With “YKGKNLIMIQVEALQQFVINSKVENQEITPNLNRWINKSLYFNNFFYQVSSGNTSDAEFLANNSFYPAASGAAYYLYAGNTYSSLAKEMNDNNYYTAVLHGYKEGFWNRNVMYKAEKFKDFFGEKSFNINENVGLGLSDKSFLNQSFNKLKSFSSPYYSFIITLSSHYPYDDTKGYGDFNVGDYEGTLLGNYLKGIHYTDAQLGTFLDKLEKSGIMDNSVVILYGDHYAIPKDKINDLYDFENIKNPTDLDWYELQKVPMLIHFPKDQYKGINSEYSGQIDLYPTIANMFNLPQNYMLGTDLFASKNRNVIFRNGSFTDGNVFYVSWTNTYYDIKTGS” the protein production was “failed”.
For “YRYDEQLNLCLERLSSGKDKNKSVLQNKYVRCSVRAEVRHLRRVLCHRLMLNPQHVQLLFDNEVLPDHMTMKQIWLSRWFGKPSPLLLQYS”, the protein production was “failed”.
In the case of “YSGSQAPGGIQEIVAMSPELDTYSITKRVKEVLTDNNLGQRLFGESILGLTQGSVSDLLSRPKPWHKLSLKGREPFVRMQLWLNDPHNVEKLRDMKKL”, the protein production is reported as “not failed”.
For “YTEPQIDDTNDGIVFSELTHPLIADAVANDFSLSQNILLTGSNASGKSTFMKSIAINIILASAIQTVTASKFVYQPGIVFTSMANADDVLSGDSYFMAELKSIKRIVEIPDNQKIYCFIDEIFKGTNTTERIAASESVLSFLHEKSNFRVIAATHDIELAELLKQRYENYHFNEVIENNNIHFDYKIKPGKANTRNAIELLKITSFPAKIYERAKDNVSN”, the protein production was “failed”.
